The values below come from the DeepSol protein solubility set.

A short description of the data set: soluble on expression in E. coli; label from the status in PepcDB or PDB records.
In the case of “MPIATPEVYAEMLGQAKQNSYAFPAINCTSSETVNAAIKGFADAGSDGIIQFSTGGAEFGSGLGVKDMVTGAVALAEFTHVIAAKYPVNVALHTDHCPKDKLDSYVRPLLAISAQRVSKGGNPLFQSHMWDGSAVPIDENLAIAQELLKAAAAAKIILEIEIGVVGGEEDGVANEINEKLYTSPEDFEKTIEALGAGEHGKYLLAATFGNVHGVYKPGNVKLRPDILAQGQQVAAAKLGLPADAKPFDFVFHGGSGSLKSEIEEALRYGVVKMNVDTDTQYAFTRPIAGHMFTNYDGVLKVDGEVGVKKVYDPRSYLKKAEASMSQRVVQACNDLHCAGKSLTHHHHHH”, the “soluble on expression in E. coli” value was “soluble”.

For the sequence “MSLSKRSIPNVDWANQLENAIRQFVKEKLELIMREEIKNFLEIEQAGTPNMRNGYYQRNLDTQYGRIEGLLVPRDRNGEFQTQLFAPYQRHTGWLEEAIIRMYQSGMSTREIGKFIERILGSTYSPATISRITDVVKEDIEKWHARPLHQRYSVLYLDGLYVKLRRDTVEKEVIYVVLGVNEEGYREILDFFVGGQESAYVWQEILQQLYKRGVKEVLLGVFDGLPGLEEAFKAVYPKADVQRCVVHKVRNTLSRVRKKDQFEMAEDLKLIYRSPNKEIALEMFQQFQSKWSHKYPREVQSWANELDVLLTFMDYPSSIRSVIYTTNAIERTIKEIRKRLKPMNSLSSLEAAEKVVYLTIQDFNEKWAGRKLRGFAEAQEALQRMFEEREGHHHHHH”, the “soluble on expression in E. coli” value is on record as “not soluble”.

In the case of “ASEKLRSKLMSADEAAQFVNHGDKVGFSGFTGAGYPKALPTAIANRAKEAHGAGNDYAIDLFTGASTAPDCDGVLAEADAIRWRMPYASDPIMRNKINSGSMGYSDIHLSHSGQQVEEGFFGQLNVAVIEITRITEEGYIIPSSSVGNNVEWLNAAEKVILEVNSWQSEDLEGMHDIWSVPALPNRIAVPINKPGDRIGKTYIEFDTDKVVAVVETNTADRNAPFKPVDDISKKIAGNFLDFLESEVAAGRLSYDGYIMQSGVGNVPNAVMAGLLESKFENIQAYTEVIQDGMVDLIDAGKMTVASATSFSLSPEYAEKMNNEAKRYRESIILRPQQISNHPEVIRRVGLIATNGLIEADIYGNVNSTNVSGSRVMNGIGGSGDFTRNGYISSFITPSEAKGGAISAIVPFASHIDHTEHDVMVVISEYGYADLRGLAPRERVAKMIGLAHPDYRPLLEEYYARATSGDNKYMQTPHDLATAFDFHINLAKNGSM”, the “soluble on expression in E. coli” value was “not soluble”.

For the sequence “MGSDKIHHHHHHMKEIRIILMGTGNVGLNVLRIIDASNRRRSAFSIKVVGVSDSRSYASGRNLDISSIISNKEKTGRISDRAFSGPEDLMGEAADLLVDCTPASRDGVREYSLYRMAFESGMNVVTANKSGLANKWHDIMDSANQNSKYIRYEATVAGGVPLFSVLDYSILPSKVKRFRGIVSSTINYVIRNMANGRSLRDVVDDAIKKGIAESNPQDDLNGLDAARKSVILVNHIFGTEYTLNDVEYSGVDERSYNANDRLVTEVYVDDRRPVAVSRIISLNKDDFLMSIGMDGLGYQIETDSNGTVNVSDIYDGPYETAGAVVNDILLLSKVQK”, the “soluble on expression in E. coli” value was “not soluble”.

As for “MTLVGECLSPHVTMAQRDHIRLEWRMPYRVLERTRQVAWTCFCRASVYELCEGGGQAFLRRTVQLDGKPTAHETSPCSISEARVIWTALLSGRAR”, the “soluble on expression in E. coli” value is on record as “not soluble”.

On to “SMIPDFMSFTSHIDELYESAKKQSGGKVADYIPQLAKFSPDLWGVSVCTVDGQRHSTGDTKVPFCLQSCVKPLKYAIAVNDLGTEYVHRYVGKEPSGLRFNKLFLNEDDKPHNPMVNAGAIVVTSLIKQGVNNAEKFDYVMQFLNKMAGNEYVGFSNATFQSERESGDRNFAIGYYLKEKKCFPEGTDMVGILDFYFQLCSIEVTCESASVMAATLANGGFCPITGERVLSPEAVRNTLSLMHSCGMYDFSGQFAFHVGLPAKSGVAGGILLVVPNVMGMMCWSPPLDKMGNSVKGIHFCHDLVSLCNFHNYDNL”, for which the “soluble on expression in E. coli” value was “soluble”.

Consider “MSFPAASIDLGTNTARLLIGSVEAGRIEHLLVKRHITRLGGGFTKERGISPEAWSRSLAALVDFADEMNRAGVVRVRAVATSAVRDAVNGGDFCADVAERTGISLEVIDGEEEALLTLAGVLSGLDRKEGRFFVFDVGGGSTEYTLASGNAPLYTESLPLGVVRLTEGKSDLPAMEEKVGRELAGLRERLAGRALDGQLAGATLVGTAGTATTLAAISLGMTDYDYRRVNNHLLSRDEIARILALLLPLSPAERLAVPGLEKGREDLIVAGTLITLATMDLFGFESMTVSDFGLLEGALIGLARTDELEHHHHHH”, for which the “soluble on expression in E. coli” value was “not soluble”.

On to “MGSDKIHHHHHHMKITLHGVAETLLITLYIRAKDAMAKHPILNDQKSLAIVEQIEYDFDKFDNSEASFYATLARIRVMDREIKKFIRENPNSQILSIGCGLDTRFERVDNGQIRWYNLDLPEVMEIRKLFFEEHERVTNIAKSALDETWTREVNPQNAPFLIVSEGVLMFLKEDDVETFLHILTNSFSQFMAQFDLCHKEMINKGKQHDTVKYMDTEFQFGITDGHEIVDLDPKLKQINLINFTDEMSKFELGTLRSLLPTIRKFNNCLGVYEYKASEKK”, for which the “soluble on expression in E. coli” value was “not soluble”.

Take “MPTTPRSQPGTVGKDMAGALAGRHNDMPPISSNYQGRPGNANPNYRYQPSADNARNVADWTKSHMKTARENAAAKR”: the “soluble on expression in E. coli” value is listed as “not soluble”.

For the sequence “MRAELQAETEAERLERQAKLHELLHRLRGEPNVLLPFHQALALRPRGERHLGLRTIEVDKVVGSVDRYEDFDHRFLPKTPHTLERWKRLRALQLAGAEFPPIEVYQVGEAYFVKDGNHRVALAKATGQKFIDAHVIALDVPVPIEPGDTPKDLLLKAEYAHFLEKTRLKDLVPGAEEIRFTALGRYDRLLDHIATRRYFKGLEEGREISWEEAVVDWYENLYKPTVEAIRRLGLLRDFPGRTEADLYLWVMDHRYFLARELGVDPGPEGAAKSYEAHFGGVWKRLGGGLKRLLTGR”, the “soluble on expression in E. coli” value was “soluble”.

Turning to “MSLSKNVTYEGIYVENINVSNLNEKDLKEKLNEHYSDLLNNFKITFNYKDNFNETFSAKDLGFFFDINDLSNQVFSFGKNSNIFSNTIERLKLKSNPKYFQFKPESNSEVLSEKLSEISNKINKEKVEPTISFSNDSISATKEQIGYKLDLEKLTSEIVNDLNNSHDSLNCTINIPVEEIKPKLTQETVNNMVILGSYTTKLPSLTGGRTKNISNYLSKLNGTILMPGDIFSADKEGEDRTESNGYTYAPGYIGNKVVDILAGGICQGVTTLYNSVLYADLKIVERAPHSLPVTYAPIGRDATMASGVIDFKFQNNMNNPVIVQTYITSSGQVKSNIWGIKEDPGKEIVISVDQHGPKSSTTYKETYENGVLVKKEVLSKDKYNEGHHHHHH”, the “soluble on expression in E. coli” value is reported as “soluble”.

“MRRKMIMKIIQITDTHLLPPGIAINGVDPENQLRAAVADIVEKHADADLLVMTGDLCNYGEPEAYELLRDILAPVSIPTRLMLGNHDRRPEFVAAFPEQPRDDNGYIQSFIDTEFGRLLFLDSHEADVIGGIYGADRLTWLENALESAGDLPITVFVHHPPMDCGIRHFEHIGMHDDGAIMRRLAAHPAGIRHIVFGHIHVPMAGTTAEGIAYSSGQACAHRFITDIDVVDPLWTGGNPCYRVISLGAFGLRAYDAEVGQPVLGQTPVCEGP”: the “soluble on expression in E. coli” value is given as “not soluble”.

With “MTPAELKRLYHIIKVQLEYGLDELLPDHQLTKAPLLMRKSLFWIKNQHPEKPLGERLRLALQELGPVWIKFGQMMSTRRDLFPPHIADPLALLQDQVAPFDGELAKQQMEKALGGPLENWFTEFDIKPLEHHHHHH”, the “soluble on expression in E. coli” value was “not soluble”.

As for “MKADIARCAYMHAHGGFYFDTDYKLLRPLDAQVLSQHCVLPVEEGAPGQEDFKIGNAVFGSEPGHPFWRAFIEHIFTAHAPETLQDHREIPMISGPRGLTRFYNAHGGQFADILFPPRDAFHPDRTWFGLGHRGGKSAVGSHLCWASWRGKSPRRALTNYLRRKLNAVPILEHHHHHH”, the “soluble on expression in E. coli” value is listed as “not soluble”.

For the sequence “SISPAQIAEALQGRGWDAEIVTDASMAGQLVDVRPEGILKCVDGRGSDNTRMGGPKMPGGIYAIAHNRGVTSIEGLKQITKEVASKGHLPSVHGDHSSDMLGCGFFKLWVTGRFDDMGYPRPQFDADQGANAVKDAGGIIEMHHGSHTEKVVYINLLANKTLEPNENDQRFIVDGWAADKFGLDVPKFLIAAAATVEMLGGPKNAKIVVP”, the “soluble on expression in E. coli” value is listed as “soluble”.
